These results are taken from the supplement of paper PMC10724198.

± gives the standard deviation of the averaged measurements.

In data set [1] the test system is Saccharomyces cerevisiae. As to the kind of experiment: protein stability index of tFT-peptide fusion in wild type (PSI (0-1 scale)); higher = more stable (slower turnover). As to conditions: genetic background: wild type. The procedure: (§1)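 MPS profiling in S. cerevisiae of two library types built from selected 12-aa C-degron peptides (IN1, IN2, LN1, LN3, VN2, R1-R5, W1-W3, Atg1 and Rpa12 C-termini): saturation mutagenesis libraries and C-terminal +1 capping libraries (13 aa). Each peptide is fused to the C-terminus of a sfGFP-mCherry timer, after a GGGS linker. Cells are FACS-sorted into 8 mCherry/sfGFP bins and sequenced. PSI runs from 0 (unstable) to 1 (stable), measured once in wild type and in the das1Δ or doa10Δ background.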

Data set [2] relates to Saccharomyces cerevisiae. As to the kind of experiment: protein stability index of tFT-peptide fusion in deletion strain of DAS1 (PSI (0-1 scale)); higher = more stable (slower turnover). The procedure:
as §1

In data set [3] the test system is Saccharomyces cerevisiae. As to the kind of experiment: protein stability index of tFT-peptide fusion (C-terminal peptide) (PSI (0-1 scale)); higher = more stable (slower turnover). Conditions: temperature: 30 C. The procedure: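 MPS profiling in S. cerevisiae of the yeast C-terminome library: the last 12 aa of each annotated ORF are fused to the C-terminus of a sfGFP-mCherry timer, after a GGGS linker. Cells are FACS-sorted into 8 mCherry/sfGFP bins and deep-sequenced. PSI runs from 0 (unstable) to 1 (stable); wild type and das1Δ backgrounds, two technical replicates each.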

[4] abbreviates: genetic background: das1 deletion.
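For protein stability index of tFT-peptide fusion in deletion strain of DAS1 in this document: PSI is a weighted mean of each variant's read distribution over the sorted stability bins, computed only for variants having over 10 reads in total.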
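For protein stability index of tFT-peptide fusion in wild type in this document: PSI derived as read-weighted mean over the 8 sorting bins, only variants exceeding 10 total reads kept, mCherry placed adjacent to the peptide and sfGFP distal.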

ARHRVGLWRGAS: the values for the protein stability index in the data set with Saccharomyces cerevisiae [1] and in the data set with Saccharomyces cerevisiae [2] were 0.603 and 0.689, respectively.

Regarding ARWCVGLWRGAS, the protein stability index in the data set with Saccharomyces cerevisiae [1] came out at 0.357; in the data set with Saccharomyces cerevisiae [2], 0.7.

Turning to ARWFVGLWRGAS, the protein stability index in the data set on Saccharomyces cerevisiae [1] turned out to be 0.345; with Saccharomyces cerevisiae [2], 0.699.

For the sequence ARWKVGLWRGAS, the values for the protein stability index with Saccharomyces cerevisiae [1] and with Saccharomyces cerevisiae [2] were 0.32 and 0.673, respectively.

On to ARWRKGLWRGAS, for which the protein stability index is 0.657 with Saccharomyces cerevisiae [1] and 0.697 with Saccharomyces cerevisiae [2].

For ARWRRGLWRGAS, the protein stability index stood at 0.55 in the data set with Saccharomyces cerevisiae [1] and 0.692 in the data set with Saccharomyces cerevisiae [2].

For the sequence ARWRTGLWRGAS, the protein stability index in the data set with Saccharomyces cerevisiae [1] was determined as 0.474; with Saccharomyces cerevisiae [2], 0.679.

ARWRVDLWRGAS: the protein stability index in the data set on Saccharomyces cerevisiae [1] was 0.214; with Saccharomyces cerevisiae [2], 0.728.

As for ARWRVGLFRGAS, the protein stability index is 0.655 in the data set with Saccharomyces cerevisiae [1] and 0.665 with Saccharomyces cerevisiae [2].

As to ARWRVGLMRGAS, the protein stability index in the data set with Saccharomyces cerevisiae [1] came to 0.596; in the data set with Saccharomyces cerevisiae [2], 0.677.

For the sequence ARWRVGLRRGAS, the protein stability index came to 0.672 with Saccharomyces cerevisiae [1] and 0.683 with Saccharomyces cerevisiae [2].

ARWRVGLWRCAS: the values for the protein stability index with Saccharomyces cerevisiae [1] and in the data set on Saccharomyces cerevisiae [2] were 0.114 and 0.674, respectively.

Take ARWRVGLWRGAF: the results for the protein stability index with Saccharomyces cerevisiae [1] and in the data set with Saccharomyces cerevisiae [2] were 0.603 and 0.682, respectively.

Regarding ARWRVGLWRGAM, the protein stability index in the data set on Saccharomyces cerevisiae [1] stood at 0.531; with Saccharomyces cerevisiae [2], 0.702.

Take ARWRVGLWRGAW: the values for the protein stability index in the data set with Saccharomyces cerevisiae [1] and with Saccharomyces cerevisiae [2] were 0.68 and 0.686, respectively.

For the sequence ARWRVGLWRGLS, the protein stability index in the data set with Saccharomyces cerevisiae [1] came to 0.119; in the data set on Saccharomyces cerevisiae [2], 0.661.

For ARWRVGLWRGRS, the values for the protein stability index in the data set on Saccharomyces cerevisiae [1] and in the data set on Saccharomyces cerevisiae [2] were 0.66 and 0.679, respectively.

Take ARWRVGLWRHAS: the values for the protein stability index in the data set on Saccharomyces cerevisiae [1] and with Saccharomyces cerevisiae [2] were 0.0927 and 0.688, respectively.

In the case of ARWRVGLWRNAS, the protein stability index in the data set with Saccharomyces cerevisiae [1] amounted to 0.11; with Saccharomyces cerevisiae [2], 0.693.

For ARWRVGLWRYAS, the protein stability index was 0.0836 with Saccharomyces cerevisiae [1] and 0.686 in the data set with Saccharomyces cerevisiae [2].

For ARWRVMLWRGAS, the figures for the protein stability index in the data set on Saccharomyces cerevisiae [1] and in the data set on Saccharomyces cerevisiae [2] were 0.305 and 0.705, respectively.

With ARWRVYLWRGAS, the protein stability index in the data set on Saccharomyces cerevisiae [1] turned out to be 0.378; with Saccharomyces cerevisiae [2], 0.618.

Regarding AVWRVGLWRGAS, the figures for the protein stability index with Saccharomyces cerevisiae [1] and with Saccharomyces cerevisiae [2] were 0.409 and 0.678, respectively.

On to CDKRNHLIKLLN, for which the protein stability index in the data set with Saccharomyces cerevisiae [1] came out at 0.153; in the data set on Saccharomyces cerevisiae [2] it was 0.589.

On to CPSCGYKFRTNN, for which the protein stability index in the data set with Saccharomyces cerevisiae [1] was 0.361; in the data set with Saccharomyces cerevisiae [2], 0.754.

As for CTECGYKFRTNN, the protein stability index in the data set with Saccharomyces cerevisiae [1] turned out to be 0.357; with Saccharomyces cerevisiae [2] it was 0.678.

Consider CTPCGYKFRTNN, for which the protein stability index in the data set with Saccharomyces cerevisiae [1] turned out to be 0.248; in the data set with Saccharomyces cerevisiae [2] it was 0.686.

With VQHDPSVHTNQL [MAE1 C-terminal 12 aa], the protein stability index in the data set on Saccharomyces cerevisiae [3] (setting [4]) was determined as 0.6923 ± 0.0028; in the data set with Saccharomyces cerevisiae [3] (genetic background: wild type) it was 0.664 ± 0.029.

For VQNWKPKPFGVL [LAS1 C-terminal 12 aa], the protein stability index with Saccharomyces cerevisiae [3] (setting [4]) worked out at 0.707 ± 0.015; with Saccharomyces cerevisiae [3] (genetic background: wild type), 0.737 ± 0.059.

On to VRDHFGVINSIW [YJL070C C-terminal 12 aa], for which the protein stability index turned out to be 0.715 ± 0.051 with Saccharomyces cerevisiae [3] (setting [4]) and 0.694 ± 0.011 in the data set with Saccharomyces cerevisiae [3] (genetic background: wild type).

As for VRKDYIALINQY [ADI1 C-terminal 12 aa], the protein stability index in the data set on Saccharomyces cerevisiae [3] (setting [4]) was determined as 0.6715 ± 0.0042; in the data set on Saccharomyces cerevisiae [3] (genetic background: wild type) it was 0.652 ± 0.01.

VRQVEEDENYDD [CYC8 C-terminal 12 aa]: the values for the protein stability index in the data set with Saccharomyces cerevisiae [3] (setting [4]) and with Saccharomyces cerevisiae [3] (genetic background: wild type) were 0.7 ± 0.024 and 0.748 ± 0.076, respectively.

For VRYVIIHRHTST [RMD8 C-terminal 12 aa], the protein stability index with Saccharomyces cerevisiae [3] (setting [4]) was determined as 0.648 ± 0.0073; with Saccharomyces cerevisiae [3] (genetic background: wild type) it was 0.599 ± 0.0066.

Regarding VSDSEQSDTKGI [UAF30 C-terminal 12 aa], the results for the protein stability index with Saccharomyces cerevisiae [3] (setting [4]) and in the data set with Saccharomyces cerevisiae [3] (genetic background: wild type) were 0.6733 ± 0.0011 and 0.676 ± 0.016, respectively.

On to VSLKKGKLKAHC [YAP7 C-terminal 12 aa], for which the protein stability index in the data set on Saccharomyces cerevisiae [3] (setting [4]) is 0.673 ± 0.016; in the data set with Saccharomyces cerevisiae [3] (genetic background: wild type), 0.692 ± 0.019.
